Laboratory results taken from the supplement of paper PMC10126150.
± gives the standard deviation of the averaged measurements.

Tested on: ATP
Test: switch fluorescence ratio, 500 uM ATP over buffer (Cy3 cluster intensity, sum of 5 cycles each) (fold (ratio)); higher = stronger signal-on switching upon ATP binding; sequences stand for … in TCGTCGGCAGCGTCAGATGTGTATAAGAGACAGTTTTTTTTTTTTTTTTTTTTTTTTT…TC
Details: aptamer strand: ATP DNA aptamer (quencher-CACCTGGGGGAGTATTGCGGAGGAAGG + anchor), 100 nM annealed; ATP concentration: 500 uM
In short: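 Switching-strand clusters labelled with Cy3 on a modified Illumina MiSeq flow-cell were annealed to 100 nM quencher-labelled ATP aptamer, imaged in selection buffer, and re-imaged after 15 min with 500 uM ATP at 22 °C. This was done over five cycles with NaOH stripping and re-annealing in between. The fluorescence ratio is summed target-cycle over summed buffer-cycle Cy3 intensity per cluster, averaged per switch-domain sequence, excluding clusters outside 100-1000 RFU.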
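Also: ATP exposure 15 min at 22 °C before imaging.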

| Sequence | switch fluorescence ratio |
| --- | --- |
| CTCGCGACGA | 1.06 ± 0.019 |
| GCCACGGCGA | 1.02 ± 0.021 |
| TGGGGCAAAT | 1.01 ± 0.034 |
| GAATTCTCCG | 1.18 ± 0.012 |
| GGAATCTGTT | 0.993 ± 0.068 |
| ATACGTTCGG | 1.01 ± 0.0015 |
| GTGGGCGCCG | 0.987 ± 0.023 |
| TTGGAGTGCT | 1.04 ± 0.045 |
| TAAATGGACG | 0.9669 ± 0.0095 |
| GCTTGATTAG | 0.9963 ± 0.0018 |
| TTTCTGCAGC | 1.24 ± 0.14 |
| GAATTCTCGT | 0.969 ± 0.024 |
| CTCGCGGCGG | 1.03 ± 0.034 |
| CCAAGTCCTG | 0.97 ± 0.092 |
| GGGAGAGGGC | 0.991 ± 0.013 |
| AAAGGCCCCC | 1.0047 ± 0.00068 |
| AGGGAACGAT | 0.9693 ± 0.0022 |
| TCGGGGGGGC | 1.01 ± 0.072 |
| CAAAAAGAAT | 1.003 ± 0.0048 |
| ATCGGATTGG | 1.03 ± 0.072 |
| CAGTAATTGA | 1 ± 0.026 |
| GAGGTATTTG | 1.02 ± 0.037 |
| GATGAATGGG | 0.996 ± 0.014 |
| AGGTTTAGTC | 0.9945 ± 0.0026 |
| TAAAGGTATG | 1.02 ± 0.013 |

| Sequence | switch fluorescence ratio |
| --- | --- |
| AAAGACATCT | 1.02 ± 0.095 |
| GAGTTGGGAA | 1.04 ± 0.077 |
| TAGTTTGGGA | 1.01 ± 0.03 |
| CGCAGGGTGG | 1.05 ± 0.022 |
| GAATTCGGCT | 1.0193 ± 6.4e-05 |
| GACCCGCCAA | 4.89 ± 1 |
| ATTTGGTTGG | 0.987 ± 0.044 |
| ATGGTCGGCA | 0.985 ± 0.034 |
| GTTGTGTTAA | 0.997 ± 0.014 |
| TTTGTTTTTC | 1.02 ± 0.013 |
| GTTGTAGTCC | 1.02 ± 0.022 |
| TCAGAAGGTG | 1.59 ± 0.079 |
| ATGCATTTTG | 0.97 ± 0.03 |
| GAGAGTTAAA | 0.976 ± 0.015 |
| GTTGGGCACT | 0.992 ± 0.033 |
| CGGTATGAGG | 0.9 ± 0.11 |
| TGGTGTATGT | 0.995 ± 0.022 |
| CGAGAGGTGG | 1.04 ± 0.055 |
| TAGTCCAAAT | 0.9738 ± 0.0018 |
| GTGGGCGGGG | 0.979 ± 0.031 |
| ATCATTGGG | 1.014 ± 0.008 |
| GCGTAAGTG | 0.986 ± 0.041 |
| TTGCACGGGC | 1.007 ± 0.0052 |
| ATCCTTGATA | 1.03 ± 0.016 |
| TCATGGGGTA | 0.9617 ± 0.004 |

| Sequence | switch fluorescence ratio |
| --- | --- |
| CAGGGGGCTT | 1.03 ± 0.054 |
| TGGGTGCCGG | 0.929 ± 0.11 |
| CCGTATTGGT | 1.03 ± 0.039 |
| GATTGATTGC | 1 ± 0.033 |
| GGATGGTATG | 1.01 ± 0.015 |
| TAGGGATCGT | 0.98 ± 0.051 |
| TGCGATTGTT | 1.01 ± 0.056 |
| AGGGGGAAGA | 1 ± 0.019 |
| TGGGTGCATG | 0.9897 ± 0.0049 |
| AGAGTGGGCC | 0.956 ± 0.07 |
| GAAAGGCGAG | 1.11 ± 0.053 |
| ATTTGTCGGC | 1.05 ± 0.051 |
| AGACAGGGCT | 1.02 ± 0.042 |
| TGGTTTAAGT | 0.987 ± 0.027 |
| TTTCAGGGAA | 0.99 ± 0.054 |
| CCGGGCGGTG | 1.04 ± 0.021 |
| CTGGCATGGG | 0.979 ± 0.014 |
| TACATATCTT | 1.01 ± 0.025 |
| AATGTGGGAA | 1.01 ± 0.044 |
| CGATATCGTG | 1 ± 0.019 |
| GAACTGTATG | 1.05 ± 0.056 |
| GTTTTTACCT | 1.21 ± 0.19 |
| CTTTCTGGGG | 0.991 ± 0.017 |
| CGCTCGGGTT | 1.003 ± 0.0025 |
| CATTTATTTG | 1.01 ± 0.014 |

| Sequence | switch fluorescence ratio |
| --- | --- |
| CCGATTATTT | 0.997 ± 0.015 |
| GATGGGTTTT | 0.997 ± 0.062 |
| AGTTGGGTGC | 0.99 ± 0.018 |
| CGTTTTATGC | 0.947 ± 0.059 |
| AAAAGGTCAG | 1.01 ± 0.021 |
| TCTTTTTTGC | 0.986 ± 0.073 |
| GGTACTATAG | 1.034 ± 0.0066 |
| GCTAGTGCTA | 0.996 ± 0.04 |
| TCCAGCTGTG | 0.9916 ± 0.0022 |
| GGGTTATAGG | 0.978 ± 0.025 |
| GGGGGAGCTG | 0.978 ± 0.019 |
| GGTATTGGTA | 1.13 ± 0.25 |
| ACTCAATTTT | 1.05 ± 0.03 |
| GCATTTTTAT | 1.02 ± 0.037 |
| TACTCACTGT | 1.219 ± 0.0069 |
| ATTTGTTGAT | 1 ± 0.021 |
| AAATTTCATA | 1.03 ± 0.01 |
| AGAGGAATTT | 1.01 ± 0.02 |
| CCGGCGGGG | 1.04 ± 0.027 |
| GGCCGTTTGG | 0.981 ± 0.032 |
| GGGACAGAGG | 0.988 ± 0.0047 |
| CGAGTAAACG | 1.02 ± 0.017 |
| TATTGATTTG | 1.02 ± 0.019 |
| CTCGCTCGGT | 1.01 ± 0.019 |
| ATTTTGTGAT | 0.994 ± 0.025 |

| Sequence | switch fluorescence ratio |
| --- | --- |
| TTTGCATGAT | 0.982 ± 0.017 |
| CATTAAGCTG | 1 ± 0.12 |
| AACGGTCTGA | 1.009 ± 0.0024 |
| AAGCTCGGTA | 0.9866 ± 0.0065 |
| TTTTCCCTGC | 1.24 ± 0.11 |
| GATACGTGTT | 0.998 ± 0.053 |
| AAAGGCGAGG | 0.957 ± 0.015 |
| GAGTCACGGA | 1.01 ± 0.046 |
| ACGGGCTTCT | 1.005 ± 0.0047 |
| ATAGTACAGG | 1.08 ± 0.011 |
| AGGGGGGCGG | 0.992 ± 0.039 |
| ATAAGAAGAT | 1.022 ± 0.0014 |
| GACTTAATGG | 0.962 ± 0.051 |
| TTTTAAGTTT | 0.978 ± 0.027 |
| ACAAAACATG | 1.16 ± 0.15 |
| GCTTCTTAGT | 1.028 ± 0.0053 |
| TCAGTACTTT | 0.998 ± 0.043 |
| GGGTGGCGTG | 0.981 ± 0.082 |
| ATTTGACTTA | 1.03 ± 0.015 |
| CTCTTGTTTT | 0.988 ± 0.018 |
| GAGGGGGTAG | 0.997 ± 0.033 |
| TTATCAAAGC | 0.992 ± 0.033 |
| AAATTATCCA | 1.016 ± 0.0092 |
| TAATAAAAAA | 0.9772 ± 0.0069 |
| AGCAGGGGGG | 1.06 ± 0.067 |

| Sequence | switch fluorescence ratio |
| --- | --- |
| TCAATAGACC | 1.05 ± 0.011 |
| AGGAAGGGTG | 1.04 ± 0.022 |
| TGAAAGTTGG | 0.997 ± 0.013 |
| TTTTTAAAAG | 0.988 ± 0.011 |
| TATGGTGACG | 1 ± 0.12 |
| GAGGATTGAC | 1 ± 0.038 |
| CTGATCAGTT | 1.02 ± 0.017 |
| ATAAAATATT | 0.998 ± 0.022 |
| AGTTTCAGGT | 1.005 ± 0.006 |
| TTGATACCTA | 1.04 ± 0.038 |
| TAGGAAATCT | 1.03 ± 0.017 |
| TTTTGGCTGG | 1.01 ± 0.052 |
| GTGGGGCAAA | 1 ± 0.043 |
| GTCGTTTGCG | 1.012 ± 0.0048 |
| GGTTACACTG | 1.03 ± 0.025 |
| TTGCAAGTTT | 0.9811 ± 0.00083 |
| TGGTATTGCA | 0.999 ± 0.028 |
| AGATGCAGCT | 0.976 ± 0.033 |
| AAGTTCACAA | 1.01 ± 0.033 |
| GATTGAAGGG | 0.979 ± 0.032 |
| TTCGGCGGGC | 1 ± 0.027 |
| GTCGGACTAG | 1 ± 0.051 |
| TGCGAATAGG | 1.0088 ± 0.00022 |
| GGGTGGGCCA | 0.969 ± 0.035 |
| GTATTGAGAT | 0.973 ± 0.063 |

| Sequence | switch fluorescence ratio |
| --- | --- |
| GAGGGCGGCA | 1.02 ± 0.036 |
| TACTTTAGCT | 1.109 ± 0.0069 |
| TGTGTGCGGC | 1 ± 0.028 |
| CGCAAAAAGT | 1.0219 ± 0.00086 |
| GGAGTGCTGG | 0.995 ± 0.032 |
| TTTGTGGGG | 0.978 ± 0.023 |
| ACTCGCGGGA | 0.995 ± 0.028 |
| AGGGCTGCCT | 1.05 ± 0.096 |
| TGCAACGAGG | 0.998 ± 0.035 |
| AAATTTGGTG | 1.14 ± 0.14 |
| TATTGGGGGC | 1 ± 0.018 |
| TTAATTTTCG | 1.04 ± 0.066 |
| TTGTATGGAC | 1.019 ± 0.0076 |
| TTTTGGTTGA | 0.977 ± 0.025 |
| TTTGGGTGTC | 0.979 ± 0.014 |
| TGTAGTACCG | 1.021 ± 0.0056 |
| GGGGATTAAG | 0.971 ± 0.033 |
| TTAGGTGGCG | 1.04 ± 0.018 |
| TACTCAGGTT | 2.25 ± 1.8 |
| ACGATTCAAG | 1.02 ± 0.061 |
| GAGTTATATT | 0.985 ± 0.025 |
| CTTGGTTGCT | 0.997 ± 0.032 |
| ATATGTGATG | 0.997 ± 0.021 |
| AAGTATTATT | 0.983 ± 0.03 |
| CACAGGGCGG | 1.04 ± 0.017 |

| Sequence | switch fluorescence ratio |
| --- | --- |
| GGCGCGGAGG | 0.992 ± 0.019 |
| GGTGACGCTG | 0.992 ± 0.031 |
| AGAGGAGGCA | 0.9727 ± 0.0085 |
| AAACGGGGAT | 0.992 ± 0.011 |
| TACGATAGGG | 1.21 ± 0.16 |
| CGATAGATGT | 1 ± 0.024 |
| ACTGGAGTTT | 1.01 ± 0.023 |
| GGTGTCTTAC | 1.01 ± 0.029 |
| AGTCGGCTGT | 0.99449 ± 0.00015 |
| GGGCCAAGGA | 1.01 ± 0.02 |
| ATGTTTAGAA | 0.9607 ± 0.0073 |
| GGGGCATGGT | 1.01 ± 0.018 |
| TTCATCTCGC | 1.1 ± 0.1 |
| AGAGGATATA | 0.988 ± 0.043 |
| GCTGGTGTGG | 0.995 ± 0.011 |
| GTAGTAGGGT | 1.01 ± 0.035 |
| TTTTTGGGGT | 0.999 ± 0.034 |
| ATCGGTCAGC | 0.982 ± 0.022 |
| GTTGCGGGTT | 1.01 ± 0.039 |
| ACTGTGGGGG | 1.01 ± 0.022 |
| AATTGTATAT | 0.985 ± 0.042 |
| TGATGTTGAA | 0.99891 ± 0.00059 |
| TAACGGCTGC | 1 ± 0.051 |
| CACCAGGGCT | 1.6 ± 0.051 |
| TTTGGCAAGG | 1.01 ± 0.054 |
